Literature values as cited in publication PMC3064480.
pKd: −log10 of the molar value.

Molecular target: TβRII ED (Homo sapiens) (UniProt P37173)
Test: SPR

Sequence of TβRII ED (Homo sapiens) (P37173 23-166): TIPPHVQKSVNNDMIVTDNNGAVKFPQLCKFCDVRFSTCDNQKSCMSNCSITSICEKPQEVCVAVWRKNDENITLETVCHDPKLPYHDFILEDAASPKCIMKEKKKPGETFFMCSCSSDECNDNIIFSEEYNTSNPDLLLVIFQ
Sequence of TGF-β1 (P01137 279-390): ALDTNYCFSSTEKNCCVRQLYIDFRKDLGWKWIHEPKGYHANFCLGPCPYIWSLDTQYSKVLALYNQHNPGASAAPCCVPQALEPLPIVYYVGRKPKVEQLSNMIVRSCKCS

For TGF-β1 (from UniProt P01137), the pKd is given as 11.30.
